This data set can be described thus: label from the status in PepcDB records.
In the case of “MTKSPARLISFISIAIAINLVGANLALFLRLPIYLDTIGTLLIAVILGPWYAASTAFLSALINWMTTDIFSLYYSPVAIVVAIITGILIKRNCKPSSLLWKSLIISLPGTIIASVITVILFKGITSSGSSIIAQFLHGIGLDMTSSLILVQVGTDYMDRLISLILVFSTITLLKKHSPNLINQRF”, the protein production entry was “failed”. As to “MTKTLRTPEHVYLCQRLRQARLDAGLTQADLAERLDKPQSFVAKVETRERRLDVIEFAKWMAACEGLDVVSEIVATIAEGRAQA”, the protein production entry was “not failed”. “MTKVIVVNGPNLGRLGVRQPDVYGRQDLDTLRKLCAEWGKDLGLEVEVRQTDDEAEMVRWMHQAADEKTPVVMNPAAFTHYSYALADAAHMVIDENLPLMEVHISNPSARDEFRKRSVISPVATGTITGMGFYGYKLALDAVAHLLSE”: the protein production result is reported as “not failed”.

Regarding “MTKVLFVKANNRPAEQAVSVKLYEAFLASYKEAHPNDTVVELDLYKEELPYVGVDMINGTFKAGKGFDLTEEEAKAVAVADKYLNQFLEADKVVFGFPLWNLTIPAVLHTYIDYLNRAGKTFKYTPEGPVGLIGDKKIALLNARGGVYSEGPAAEVEMAVKYVASMMGFFGATNMETVVIEGHNQFPDKAEEIITAGLEEAAKVANKF”, the protein production result was “not failed”.

On to “MTLAACMQEADQLQHWREKCWRPFFRVDEEILNIHNEQLGINEDHLHGAQSIHVASNIRARKVFEFPYLQTSMKPEDAGVDAILSKFNIMIYSYKDAAYPFRMVPPIVYAHLAILRVNAGDLTSSDTWRLYM”, for which the protein production entry is given as “failed”. With “MTLDANSAPVRDMASAHFSPGEDCRRKIRDLCRQARISVDICVFTISDDQLSDEIRACHQRGVAVRVISDSEKQFDVGSDIAALREAGVPVRIDDTPFHMHHKFAVFDGRTLLNGSFNWTRSATTGNEENLLVIDHPQLVASYLKEFNELWSRYAPRLEHHHHHH” the entry was “failed”; with “MTLEKKEYGAPGFWPGSMIGRVHAFETPAPLTRAQLDRLRDEFFETRTEGHLEIWTAIRAASHAQEAGDDELAYAIITAVGILPAEVGPAGEGLGERIPFAEQPLDRLLGMICGCCFPAFTRYRTLERVYDQRGFLYETPKECIATPSNVLPDESTEASAR”, “not failed”. Consider “MTLETISSLLPMSAAGLAAVVSALAALGLGLGLWCARHRLRLLTAALEASGCGLITIEGGTRVFQANRQAARLLGRPEGLARDTQARKLFGGTLTAAVQGPGDGQPVRGTAHRPDHGWFPATLQSLGPCGGFARQRRLWLLRDLSDAQELERLRETEERFNASQRFGRIGVWDWNTETNEVFWSEEVFPMFGFTPAEITPTYDLFIAMVHPDDFVALTDSERACLSGTTLHDQEYRVIWRDGSVHWIRETADVLRESDGTPRRMVGVIREVTEEKEAQRQALRIAMLDPLTGLPNRATFLERLEADLGQVDETGVAVPLALAFIDLDDFKPINDTYGHLMGDRVLMTIAKRLSEAVRPQDMVARVGGDEFVALLRGCRDGARARTVAARLLDAVTAPVSIDTVIHRVRASIGISLYPSLVSTGDDLIATADQAMYVAKRAGGDPIRLHGE”, for which the protein production result is listed as “failed”. Next, “MTLHLPGADGTLRAYEPRTEPLPTLRATSGSAFSSRTVFSAAHVVADPYADTTPDGPAAVDWDATLAFRRHLWSHGLGVAEAMDTAQRGMGLDWPTAAELIRRSAAEARATGGRIACGVGTDQLTATAATLADVRSAYEEQLAVVEESGAQAILMASRALAATAKGPDDYLEVYGHLLRQAAEPVILHWLGPMFDPALEGYWGSSDLDAATDTFLEVIAAHPDKVDGIKVSLLDAQREIDLRRRLPRGVRCYTGDDFNYPELIAGDEQGFSHALLGIFDPLGPLAAEAVRVLDTGDTDGFRALLDPTVELSRHLFRAPTRYYKTGVVFLAWLAGHQSHFTMVGGLQSARSLPHLARAYELADGLGLFPDPKPAEERMRNLLALYGVNA”: “failed”; “MTLKLKDKNTMLNSEKMVASIEKQDLHHADKYLKKALNEDPAEVLVELAEYLESIGFLPQAQEIYEKVRFDFPEVNVNLAQIAAEDGNIEEAFLYLDAIPEESEDYLSALIVKADLYQMEGLTDVARDKLLEASQLSDDSLIIFGLAEMEFELGNFEQAIQYYAKLDNRDLLATTGVSTYERIGKSYASLGKFEAAREFLEKAIEIEYNDTIAFELATLLYDQEEYQKANFYFKQIETMSSDFEGYEYNYALSLHAEHRTEEALRMTQQGISKNAFDVQLLLLASQLSYELHDTQSAESYLKQALPLAEDNDEIVLRLSALYLEEERFDDLVALADYEVDSVLARWNIARAYQALDDEEEAFQIYQDLSKDLADNPEFLQDYAYILREFGYRDQARVTAEKYLALVPDDVNMQTFLEDY”: “failed”; “MTLLDSMIVMIYLLFIGIAAWLFRRFSTSSNDFLQGGGTMMWWMAGATAFMTQFSAWTFTGAAAKAYEDGISVMFIFWGNALGFFVAAAFFARRYRRLRVETAMEVIRVRFGHTSEQLFTWLSFPLTLIACAIWMNGLASFFSAVFAIEMSTTILAMGVIVTLIAVSGGAWTVSVTNVIQLVLLIAITLVIGYTALQHFDSPSEVFAYTTPIYGEQIRMPSLFVMWAIAMLLQQTMSNNHTLSCYRFLTTANDKDATKAAFVAGVLFVFAPVLWFMPAWFVAAQNIDLLAIYPALEQSANNAAYLYYIQHYMPQGLLGLVMVALVAATIAPLSSAHNRNAGIVVKSLYQVWFNPNATSRQQLMVGKIATIVSGILATVTALLLASVESYSLFDMMIVFAAFIQMPINIPSLLALVSLKTPNWSGWATVMVGCVVSLFMMFIFDVQWISSSPLTPRESKDLSVVATLAVHLLVTGGFFLSTRVFYAKESPSIQQSRTALSIQLATPISDEELSPINHKQGLYVGSITALAGMLLILAGVVLAGSSQSIFVAIGCIVLLFSLFLLQPTLHSKRAWQKQKTK”: “failed”. With “MTLLFRYLFRNNLQVILPTLAVGTGLYLLSDLFDRLDDILEAGVPGNVAIWYFVAKTPLIISQILPAVFLLAALIQLCLMSRDRELMALQAGGVSFGAIARFFVVYGLLWAVLQLGFSQVLGVAGERESARIWQEQVRGRTPGTRDLTNVWFTDDNHVIHLEVVTPALRKGQGFAAYGLAADGIHIDTVIRAKAFTGTAGTWKLQDVEVFSTRDFGHAKLPEMSIAIGQDPQDFAVIDPGADPQRLPLWQLGDAVEKLRTAGSNVEGLRTAWHMKLAYAASLVVMGLLAVAMVTWRDNIYLATGLALVFTFLFYTMFTIGSTLGQKGIVSPPIAAWGADILVGVVASARLLLVLRPRSLR” the entry was “failed”. Turning to “MTLLNDIQVWTTACAYDHLIPGRGVGVLLDDGSQVALFRLDDGSVHAVGNVDPFSGAAVMSRGIVGDRGGRAMVQSPILKQAFALDDGSCLDDPRVSVPVYPARVTPEGRIQVARVAV”, the protein production entry is “failed”. With “MTLNIYTEEWAPISFSVDGKPDGLAVQVVQEIQKRIDNQDPIKVVPWARGWKIITEQPNTVLFTMTRTAERERMFSLIGPVAVGTTNFYALKNSNLEHHHHHH” the entry was “failed”; with “MTLPAPWRVRHLPLLLLLLAAPLLALANSDPLPSWKDGPSKQGILAFVQAVTTQGSPDYVKAAERIAVFDNDGTLWSEQPAYFEVLFAFDEIKRLAPQHPEWKTRQPFQAVLEGDHQALAASGMHGLLQIIGATHTGISSEAFIDNARRWLAEARHPKTGRPFNQMIYQPMLEMLDYLRSQDFKTYIVSGGDTAFMRAFAESAYGIPPEQVIGSNFVTQWQFQDGQPSILRTAKLAHNDDGPGKPESIDGIIGRRPLLAFGNSDGDLQMLQWTAAGSGKRFMALVHHTDAAREWAYDRKSQVGRLDQALDQAQQHGWTLVDMAAEWRRIYPFEPLAPEQAQ”, “failed”; with “MTLPIPSSPPRIKINLPCFQYVGTEMSVDIITSIWFMTLTEFATFMPKRDMCPKPASIPPAAPTVENTVPTTIPQINRRSSITSSSSTTVDNFVIKIYQVYRRMQTLTLEISTTKRSVLNKLKRASLTFQQFKNLLYLCLLEYYKNTKDVKPFLSVSFLEKFVKGKENLPFENEKIKSYREKLKELWEKEIGSDTVKALARQVSKEVKSVLEKWKKGERAFLPRPRKLKKVHKFTVPTNPNMLVDKRKLKRRRENSIVVRLGISFGAVKVKIPQGINIRDVKITWYEDTEVIFRISYEVPKAQKELLKEKWLSIDLGVRNLVSCISNDENLRSFIVDGNPLKSFNQWVNKLSAKLRSEGKERLERKLWRYRKKRIKGFFHQVANLIVRVCLERGIGRVIIPNSLNEEYQKDSEKGARFNQEFRFIPLGELVKMIEYKCELCGIEVVKEDESWTSKVSSVSGNIEVLKEEIPEGEVKKLKFEGRRIKRGLFRDRRLKKVFNADLNGALNLAIKALGKKVREEFLSLRNWLDKLSRPVKVNLFRYPASLPVLWEIAGSKSCSPKGDSEGHFAGSVSDLITFAHF”, “failed”.

Take “MTLSAIQPNDMALYHYDSCPFCAKTRHAINELDLNIELRNIQKNHQHRIELQQGGNKTQVPCLRIGQSNGKAQWLYESGDIINFLRNRK”: the protein production entry is listed as “failed”. In the case of “MTLSKRLALLGAQSAITLAKPRGLGSSLGLLDRRPFPYRQFSELTKANGRRAFLVDTLALVRSLEAQGVPSKQAEAITSAITEVLNDSLENVSESFVSKAEMQKIEMIQDSNLSKFKSEVKSSQVTSTLVV”, the protein production entry is “failed”. Next, “MTLTLGEFIKILEATGYPVAYSHFTATPGNPVPAPPYICFLVDGSANLMADNKVYHKINDVNIELYTTKKDLVAEAKLEQVLDDHEIPYGSYGTFIESENMYQKFYETRLI”: “failed”. Next, “MTLTLLLLIFILISFISALTIIFITVKKGIFFNRLYLQSIIVCILFFTNWILYLSTFYALLPEKISEFLFLPIWFFLCILSFITFWREWRNNRVFSICIGFLSFISFLFVLFLLVLSGM”: “failed”; “MTLVTALIVLLVVLGVFFTLVAAVGVLRLPDVYTRSHAATKADTLGAGFAIAAVGLYFGTAGELVRAGLLLVFIYVTNPTAAHAITRAAYSQDVDVWTVDDNDTGTDTASAADGGDSQ”: “failed”; “MTMDGDSSTTDASQLGISADYIGGSHYVIQPHDDTEDSMNDHEDTNGSKESFREQDIYLPIANVARIMKNAIPQTGKIAKDAKECVQECVSEFISFITSEASERCHQEKRKTINGEDILFAMSTLGFDSYVEPLKLYLQKFREAMKGEKGIGGAVSATDGLSEELTEEAFTNQLPAGLITADGQQQNVMVYTTSYQQISGVQQIQFS”: “failed”.

With “MTMEPRVLRREEWDSWYGSLIRAFGGVPEPAEELELFRELTRVDRSIGVWERDGEAEACVGTTGSFDFRMTVPGGAQVRAAGVTMVSVAATHRRRGVLTSMMRRQLDDVRAWGEPLAVLTASEPAIYGRFGYGAATFSLSAEIDTSRVRLSVPAGTDDVRLRYAAPADVLDACEAVYARLVPGRPGMLARRPGWERLALLDPESGRDGASPLQCVVARRGGEVTGFARFRVRPAWGPEGAGGTVVLDDLAGLDPATEAALWRFLYDVDLTSRLAVRGRPVDEAWQYQVSDIRRCRPESRDALYVRLVDVGAALAARTYQAPVDVVFEVEDAFCPWNAGRWRLSGDAKGASCERTSDGADLALSVRELGAAYLGGVRLSSLGAAGRVREVRAGALAEASVGFGSDVAPWLPHGF”, the protein production entry is “failed”. With “MTMKETFTLVATAAAGLEAVVGRELRELGYETQVENGKVRFQGDVRAIAETNLWLRAADRIKIVVGEFPARTFEELFQGVFALDWENYLPLGAKFPISKAKCVKSKLRNEPSVQAISKKAVVKKLQKYFHRPEGVPLQETGAEFKIEVSILKDKATVLIDTTGASLFKRGYRTDKGGAPIKENMAAAILELSNWYPDKPLIDPTCGSGTFCIEAAMIGMNIAPGFNRDFAFEAWNWVGKDLVQSVRDEADSKANYDVALDIMGCDIDSRMVEIAKANAREAGLEDVVKFKQMRLQDLKTDKINGVIISNPPYGERLLDDKAVDILYNEMGQTFAPLKTWSKFILTSDEQFESKYGMKADKKRKLYNGTLRVDLYQYFGERVRRSEARKVN” the entry was “failed”.
